Key:
L-82 xenograft = L-82 xenograft with CD30 ADCs; format: in vivo, mice
Procedure: (§1) Female NOD/SCID mice were used (8 mice/group) for the study. Animals were inoculated subcutaneously in the flank with 10 million cells in 50% PBS/50% Matrigel. When tumors reached an average volume of 100 mm^3, all animals were treated (Day 0) with a single 10 mg/kg intravenous dose of human IgG. Then, on Day 1, animals were treated with vehicle alone, with unconjugated antibody (3 mg/kg), or with an ADC at 1.5 or 3 mg/kg. The animals were monitored twice weekly for body weight and tumor size. Animals were euthanized when tumors reached 2000 mm^3. ADCs were highly efficacious in this study.

Karpas 299 xenograft = Karpas 299 xenograft with CD30 ADCs; format: in vivo, mice
Procedure: as §1, with “CB17/SCID” for “NOD/SCID”, “(6” for “(8”, “5” for “10”, “PBS.” for “50% PBS/50% Matrigel.”, “214” for “100”, “mm^3,” for “mm^3, all animals were treated (Day 0) with a single 10 mg/kg intravenous dose of human IgG. Then, on Day 1,”

[1] = Forced stability of ADCs, high-molecular weight species by size-exclusion chromatography; format: physicochemical; conditions: for HWM pH 5.5, 3 d 45° C.: pH 5.5, 3 d at 45° C.; for HWM pH 5.5, 3 d −80° C.: pH 5.5, 3 d at −80° C.; for HWM pH 7.2, 3 d 45° C.: pH 7.2, 3 d at 45° C.; for HWM pH 7.2, 3 d −80° C.: pH 7.2, 3 d at −80° C.
Description: ADCs were conjugated at the antibody heavy chain C-terminus to a noncleavable linker bearing a maytansine payload for a DAR of ˜1.9. Samples were placed in buffer at the designated pH and temperature for 3 days, then analyzed by size-exclusion chromatography. HMW, high-molecular weight species.

[2] = Melting temperature by differential scanning fluorimetry; format: physicochemical
[3] = single intravenous dose, ADC 1.5 or 3 mg/kg, unconjugated antibody 3 mg/kg
[4] = ADC (heavy chain C-terminus, noncleavable maytansine linker-payload, DAR ~1.9)

Molecule | complete responses (L-82 xenograft; L-82 xenograft, NOD/SCID mice, single intravenous dose 3 mg/kg (equal dosing)) | complete responses (Karpas 299 xenograft; Karpas 299 xenograft, CB17/SCID mice, 6 mice/group, single intravenous dose 3 mg/kg (equal dosing)) | efficacy in L-82 xenograft (L-82 xenograft; [3]) | efficacy in Karpas 299 xenograft (Karpas 299 xenograft; [3]) | HWM pH 5.5, 3 d 45° C. [1] | HWM pH 5.5, 3 d −80° C. [1] | HWM pH 7.2, 3 d 45° C. [1] | HWM pH 7.2, 3 d −80° C. [1] | Fab Tm [2, 4] | Fab Tm ([2]; Antibody)
Adcetris: anti-CD30 ADC used as comparator in the xenograft studies [reference compound] | 8 out of 8 mice/group | 6/6 | – | – | – | – | – | – | – | –
VH4/VL4 antibody (antibody, V domains shown) VH: QVQLVQSGAEVKKPGASVKVSCKASGYTFTDYYITWVRQAPGQGLEWMGWIYPGSGNTKYNEKFKGRVTITVDTSASTAYMELSSLRSEDTAVYYCANYGNYWFAYWGQGTLVTVSS VL: DIVLTQSPDSLAVSLGERATINCKASQSVDFDGDSYMNWYQQKPGQPPKLLIYAASNRESGVPDRFSGSGSGTDFTLTISSLQAEDVAVYYCQQSNEDPWTFGGGTKVEIK | – | – | minimal activity | minimal activity | – | – | – | – | – | –
H4/L4 (conjugate) VH: QVQLVQSGAEVKKPGASVKVSCKASGYTFTDYYITWVRQAPGQGLEWMGWIYPGSGNTKYNEKFKGRVTITVDTSASTAYMELSSLRSEDTAVYYCANYGNYWFAYWGQGTLVTVSS VL: DIVLTQSPDSLAVSLGERATINCKASQSVDFDGDSYMNWYQQKPGQPPKLLIYAASNRESGVPDRFSGSGSGTDFTLTISSLQAEDVAVYYCQQSNEDPWTFGGGTKVEIK | – | – | – | – | 7.70% | 1.66% | 23.28% | 3.14% | 82 °C | 80.43 °C
H4/L2 (conjugate) VH: QVQLVQSGAEVKKPGASVKVSCKASGYTFTDYYITWVRQAPGQGLEWMGWIYPGSGNTKYNEKFKGRVTITVDTSASTAYMELSSLRSEDTAVYYCANYGNYWFAYWGQGTLVTVSS VL: DIVMTQSPASLAVSLGERATISCKSSQSVDFDGDSYLNWYQQKPGQPPKLLIYAASTRESGVPARFSGSGSGTDFTLTISSLQEEDVATYYCQQSNEDPWTFGGGTKVEIK | – | – | – | – | 6.18% | 1.24% | 30.38% | 2.37% | 73 °C | 75.54 °C
H1/L4 (conjugate) VH: QVQLQQSGPEVVKPGASVKVSCKASGYTFTDYYMTWVRQKPGQGLEWMGWIYPGSGNTKYNQKFKGRVTITVDTSSSTAFMELSSLTSEDTAVYFCANYGNYWFAYWGQGTQVTVSA VL: DIVLTQSPDSLAVSLGERATINCKASQSVDFDGDSYMNWYQQKPGQPPKLLIYAASNRESGVPDRFSGSGSGTDFTLTISSLQAEDVAVYYCQQSNEDPWTFGGGTKVEIK | – | – | – | – | 10.05% | 1.66% | 16.42% | 2.90% | 80 °C | 81.17 °C

Source: patent US20240343818A1, “Antibodies Having Humanized Framework Regions” (priority 2021, published 2024)
